Columns and labels:
human IL-25 [1] = biological target: T1, human IL-25 (human, UniProt Q9H293 33-177); assay: cell-based or functional assay
T1 sequence (looked up): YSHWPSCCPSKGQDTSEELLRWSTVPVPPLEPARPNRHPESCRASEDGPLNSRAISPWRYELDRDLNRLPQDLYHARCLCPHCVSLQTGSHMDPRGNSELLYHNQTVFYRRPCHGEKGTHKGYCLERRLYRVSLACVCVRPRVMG

human IL-25 [2] = biological target: T1, human IL-25; assay: ELISA, plate coated with human IL-25 (hIl25-HIS), OD450, Example 4; unit from the axis lg(nM) and paragraph 95
Experimental: MaxiSorp 96-well plates (NUNC #449824, www.thermofisher.com) were coated with 2 μg/ml human IL-25 (R&D systems #1258-IL-025/CF) in 1×PBS (50 μl/well). Plates were incubated at 4° C. overnight. Coating solution was removed and plates were washed once with 200 μl/well PBST (1×PBS with 0.05% tween-20). Then 200 μl/well blocking buffer (1×PBS with 0.05% tween-20, 3% BSA) were added and incubated at room temperature for 1 hour. Blocking buffer was removed and plates were washed three times with 200 μl/well PBST (1×PBS with 0.05% tween-20). Anti-IL-25 antibodies (produced in Example 2) were diluted to 10, 3.33, 1.11, 0.37, 0.123, 0.041, 0.0137, 0.0046, 0.0015, 0.00031, 0.000102, 0.000034 μg/ml by 1×PBS and added to plates (50 μl/well). Plates were incubated at room temperature for 2 hours. Antibodies in the wells were removed and plates were washed three times with 200 μl/well PBST (1×PBS with 0.05% tween-20). Goat anti-human IgG (H&L)-HRP secondary antibody (Jackson Immuno Research #109-035-088, www.jacksonimmuno.com) was diluted 1:5000 in 1×PBS and added to each well (50 μl/well). Plates were incubated at room temperature for 1 hour. Secondary antibody was removed and plates were washed seven times with 200 μl/well PBST (1×PBS with 0.05% tween-20) each time. 50 μl/well TMB (eBioscience #85-00-4201-56, www.ebioscience.com) was added and plates were incubated at room temperature for several minutes. Then 50 μl/well 2N H₂SO₄ was added to stop the reaction. Optical density was measured at 450 nm in relation to human IL-25 binding.

mouse IL-25 = biological target: T2, mouse IL-25 (mouse, UniProt Q8VHH8 17-169, limits assumed); assay: ELISA, plate coated with mouse IL-25, OD450, Example 7; unit from the axis lg(nM) [panel Mouse IL-25]
T2 construct: In-house production
T2 sequence (looked up): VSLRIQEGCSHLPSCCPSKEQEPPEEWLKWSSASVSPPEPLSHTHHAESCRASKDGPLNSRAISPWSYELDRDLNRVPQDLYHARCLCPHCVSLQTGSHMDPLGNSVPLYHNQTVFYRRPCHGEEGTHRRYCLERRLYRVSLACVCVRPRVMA

B1: VH1-2-VL2-1 (antibody, V domains shown)
VH: QVTLKESGPTLLKPTQTLTLTCTFSGFSLSTSGMGLGWIRQPPGKALEWLAHIWWDDVKHYKPALKSRLTITKDTSKNQVVLTITNVDPVDTATYYCARMGQLHYYGYDYAMDYWGQGTLVTVSS
VL: DIQLTQSPSFLSASVGDRVTITCSASSSVSYMYWYQQKPGKAPKPLIYRTSNLASGVPSRFSGSGSGTEYTLTISSMQPEDFATYYCQLYHSYPPTWTFGQGTKLEIK
notes: also called antibody formed by VH1-2 and VL2-1; copies: 2 + 2
Q: What does the source list for B1?
A: IC50, CXCL1/GROalpha production of HT-29 cells stimulated by human IL-25 [B] (human IL-25 [1]): 11.4 nM; EC50 (human IL-25 [2]): 0.208 nM; EC50 (mouse IL-25): 0.215 nM

Source: patent US20210332123A1 (SUZHOU KANOVA BIOPHARMACEUTICAL, published 2021)
